Patent US20150150157A1, “PREPHENATE DEHYDROGENASES AND AROGENATE DEHYDROGENASES THAT ARE INSENSITIVE TO EFFECTOR FEEDBACK INHIBITION AND METHODS OF USING THE SAME” (Wisconsin Alumni Research Foundation, priority 2013, published 2015)
“Also recorded” adds a separate entry of the source. Like-named read-outs stand apart in the source and are kept apart here.

B1: GmPDH1: soybean prephenate dehydrogenase enzyme, recombinant, insensitive to L-Tyr (protein)
chain: MSTSSSSQSLKIGIVGFGNFGQFLAKTMIKQGHTLTATSRSDYSELCLQMGIHFFRDVSAFLTADIDVIVLCTSILSLSEVVGSMPLTSLKRPTLFVDVLSVKEHPRELLLRELPEDSDILCTHPMFGPQTAKNGWTDHTFMYDKVRIRDEVICSNFIQIFATEGCKMVQMSCEEHDRAAAKSQFITHTIGRTLGEMDIQSTPIDTKGFETLVKLKETMMRNSFDLYSGLFVYNRFARQELENLEHALHKVKETLMIQRTNGEQGHKRTES
modifications: Glycine max
notes: soybean prephenate dehydrogenase enzyme, recombinant, insensitive to L-Tyr
B2: M. tuberculosis PDH: microbial prephenate dehydrogenase from the literature (protein, UniProt O69721 1-323, looked up)
Prephenate dehydrogenase: MTRTVAAPPVCVLGLGLIGGSIMRAAAAAGREVFGYNRSVEGAHGARSDGFDAITDLNQTLTRAAATEALIVLAVPMPALPGMLAHIRKSAPGCPLTDVTSVKCAVLDEVTAAGLQARYVGGHPMTGTAHSGWTAGHGGLFNRAPWVVSVDDHVDPTVWSMVMTLALDCGAMVVPAKSDEHDAAAAAVSHLPHLLAEALAVTAAEVPLAFALAAGSFRDATRVAATAPDLVRAMCEANTGQLAPAADRIIDLLSRARDSLQSHGSIADLADAGHAARTRYDSFPRSDIVTVVIGADKWREQLAAAGRAGGVITSALPSLDSPQ
B3: MtPDH1: Medicago truncatula prephenate dehydrogenase enzyme, recombinant, insensitive to L-Tyr (protein, listed as Medicago truncatula)
chain: MSSSSKSLKIGIVGFGTFGQFLANTMIKQGHTLTATSRTDYSQLCDQMGIHFFRDITAFLDADMDVILLCTSISSLSEVVGSMPLACLKRPTLFVDVLSVKEHPKNLLLKVLPEESDILCTHPMFGPVSGKNGWQNLTFMFDKVRIKDEVTCSKFLQIFASEGCKMVEMSCEEHDKAAAKSQFITHTIGRTLAEMDIKSTPIDTKGFQTLVELKKPVMGCSFDLYSGLFVYNRFARQELENLEHALHKVKEMLVQRIDEGQNPERTES

Experiments:
[1] = Kinetic analysis of purified recombinant enzymes, PDH activity; type: biochemical
Procedure: (§1) Kinetic parameters of purified recombinant GmPDH1 and MtPDH1 for ADH activity (Table 3) were determined from assays conducted using varying L-arogenate concentrations (39 μM to 5 mM). Assays were incubated for 15 min with 0.5 mM NADP^+, by placing on ice and quantified by measuring production of NADPH by absorbance at 340 nm. Kinetic parameters of purified recombinant GmPDH1 and MtPDH1 for PDH activity (Table 3) were determined from assays conducted using varying prephenate concentrations (29 μM to 3.5 mM). Assays with 0.5 mM NADP^+ were monitored continuously at 340 nm using a microplate reader (Tecan GENios, Zurich, Switzerland) for 7 min. Kinetic parameters were determined using hyperbolic regression analysis in Hyper (http://homepage.ntlworld.com/john.eastetby/software.html). Enzyme assays were carried out at a protein concentration and reaction time that were in the linear range and proportional to reaction velocity. The final enzyme concentrations of the purified recombinant GmPDH1 and MtPDH1 were 0.9 μg/ml and 0.7 μg/ml for PDH activity and 3.0 μg/ml and 1.4 μg/ml for ADH activity, respectively.

[2] = Inhibition analysis: effect of HPP on PDH activity of purified recombinant enzymes; type: biochemical; conditions: purified recombinant enzyme
Procedure: (§2) ADH and PDH reactions using GmPDH1, Glyma11g35760, MtPDH1 and AtADH2 (FIG. 5A) contained 200 mM HEPES (pH 7.3), 50 mM KCl, 10% ethylene glycol, 1 mN4 NADP^+ and 1 mM substrate (L-arogenate or prephenate, respectively). Reactions were started by addition of enzyme and incubated at 37° C. for 15 min in the presence of increasing concentrations of effectors: L-Tyr FIG. 5A), L-Phe, L-Trp and HPP. Tyr was dissolved in basic conditions (0.025 N NaOH) to dissolve at high concentrations (up to 10 mM), though 200 mM HEPES maintained the final reaction pH at 7.6. Tyr sensitivity of purified recombinant GmPDH1 and MtPDH1 was also tested at prephenate concentrations ranging from […] to 59 μM, below the K values for GmPDH1 and MtPDH1, while keeping the L-Tyr concentration constant at 1 mM (FIG. 13). Enzyme activity was measured for the production of reduced cofactor (NADPH) at 340 nm using a spectrophotometer, except for crude soybean extracts, which were analyzed by HPLC after 45 min incubation and reduction to HPLA as described above.

[3] = Qualitative HPLC detection of PDH activity in E. coli cell lysates expressing candidate enzymes; type: biochemical; conditions: 2 mM prephenate, saturating conditions
Procedure: ADH and PDH reactions contained 25 mM HEPES (pH 7.5), 50 mM KCl, 10% ethylene glycol, 1 mM NADP (or NAD^+), 2 mM substrate (L-arogenate or prephenate, respectively) unless otherwise noted. Arogenate was prepared by enzymatic conversion from prephenate (Sigma-Aldrich), as previously reported. Reactions were started by addition of enzyme from various sources and incubated at 37′ C. for a given amount of time, as noted below,
HPLC-based methods were used to directly detect the final products of ADH and PDH assays, Tyr and HPP, respectively from crude E. coli extracts (FIG. 3B and FIG. 3C) and crude plant extracts (FIG. 2A and FIG. 6). For HPLC detection of PDH activity, reactions were incubated for 45 min and terminated by addition of NaBH4, which converts the reaction product HPP (which produced multiple peaks; FIG. 6) into hydroxyphenyllactic acid (HPLA), followed by neutralization with 100 μl of 6 N HCl. The conversion and recovery rate was 80±1.5% s.d. which was taken into account for the calculation of specific activity from crude plant extracts (FIG. 2C). HPLA was detected as a single peak (FIG. 2A) after being separated by HPLC (Agilent 1260, Santa Clara, Calif.) equipped with a ZORBA X SB-C18 column (Agitent) using a 6-min isocratic elution at 25% methanol in 0.1% phosphoric acid, followed by a 20-min linear gradient of 25-60% methanol at a flow rate of 1.0 ml/min. HPLA was detected using UV absorbance at 270 nm and quantified by a calibration curve generated from the authentic HPLA standard (Sigma-Aldrich). For HPLC-based detection of ADH activity (FIG. 3B), reactions were incubated for 45 min and terminated by addition of methanol to a final concentration of 66% (v/v). The product, Tyr, was derivatized with OPA and separated on a ZORBAX eclipse-XDB C18 column (Agilent) using a 30-min linear gradient of 20-45% methanol in 0.1% animonium acetate at a flow rate of 0.8 ml/min. Tyr was detected by UV absorption at 336 nm and quantified on the basis of a calibration curve generated by the authentic Tyr standard (Acros, Geel, Belgium).
The crude enzyme extracts were first subjected to PDH and ADH assays using saturating conditions to screen for any detectable PDH and/or ADH activity (FIG. 3B and FIG. 3C). ADH activity was detected from all five candidates. In contrast, PDH activity was detected only in Glyma11a35760 and Glyma18g02650 as well as their closest homolog from Medicago (Mt3g071980) but not in Glyma5g07870, Glyma17g13150 and Glyma14g05990 (FIG. 3C).

[4] = Substrate and electron acceptor preference of purified recombinant enzymes, PDH activity; type: biochemical; conditions: with NADP+ and to a lesser extent NAD+
Procedure: (§3) To test the electron acceptor and substrate preference of purified recombinant enzymes (FIG. 12), we incubated reactions for 15 min with 1.5 mM substrate (L-arogenate or prephenate) and 1 mM cofactor (NAD^+ or NADP^+). Assays were conducted with decreasing enzyme concentrations and stopped by placing on ice, and the production of reduced cofactor, NAD(P)H, was Measured at 340 nm using a spectrophotometer (NanoDrop 2000, Thermo).

[5] = Inhibition analysis: effect of L-Trp on PDH activity of purified recombinant enzymes; type: biochemical; conditions: purified recombinant enzyme
Procedure: as §2

[6] = Inhibition analysis: effect of L-Phe on PDH activity of purified recombinant enzymes; type: biochemical; conditions: purified recombinant enzyme
Procedure: as §2

[7] = Kinetic analysis of purified recombinant enzymes, ADH activity; type: biochemical; conditions: substrate L-arogenate (ADH activity), 37° C., 0.5 mM NADP+, mean ± s.e.m.
Procedure: as §1

[8] = Substrate and electron acceptor preference of purified recombinant enzymes, ADH activity; type: biochemical; conditions: with NADP+ or NAD+, compared with PDH activity
Procedure: as §3

[9] = Inhibition analysis: L-Tyr sensitivity of PDH activity of purified recombinant GmPDH1 and MtPDH1; type: biochemical; conditions: for effect of L-Tyr on PDH activity at low (non-saturating) prephenate concentrations: 1 mM L-Tyr, prephenate 15 mM to 59 μM; for effect of L-Tyr on PDH activity at low (non-saturating) prephenate concentrations / PDH activity: 1 mM NADP+; for PDH activity: purified recombinant enzyme, 1 mM prephenate; for inhibition of PDH activity by L-Tyr: up to 10 mM of L-Tyr
Procedure: as §2

[10] = literature values; read-out: Km for prephenate of other plant and microbial PDHs; cited from earlier work
[11] = cofactor NADP+, read-out: apparent Km for prephenate
[12] = substrate prephenate (PDH activity), 37° C., 0.5 mM NADP+, mean ± s.e.m.
[13] = substrate prephenate (PDH activity), 37° C., 0.5 mM NADP+, mean ± s.e.m., read-out: Km

| Molecule | Km [1, 11] [µM] | Vmax [1, 12] [nKat mg^−1] | kcat [1, 12] [s⁻¹] | Km [1, 13] [µM] | effect of HPP on PDH activity [2] | PDH activity (qualitative detection) [3] | PDH activity of purified recombinant enzyme [4] | effect of L-Trp on PDH activity [5] | effect of L-Phe on PDH activity [6] | Km [7] [µM] | Vmax [7] [nKat mg^−1] | kcat [7] [s⁻¹] | ADH activity of purified recombinant enzyme [8] | effect of L-Tyr on PDH activity at low (non-saturating) prephenate concentrations [9] | PDH activity ([9]; L-Tyr 0 mM) [nKat/mg] | PDH activity ([9]; L-Tyr 0.01 mM) [nKat/mg] | PDH activity ([9]; L-Tyr 0.1 mM) [nKat/mg] | PDH activity ([9]; L-Tyr 1.0 mM) [nKat/mg] | PDH activity ([9]; L-Tyr 10 mM) [nKat/mg] | inhibition of PDH activity by L-Tyr [9] | also measured |
| --- | --- | --- | --- | --- | --- | --- | --- | --- | --- | --- | --- | --- | --- | --- | --- | --- | --- | --- | --- | --- | --- |
| B1 | 127 | 800 ± 21 | 26.3 ± 0.7 | 127 ± 20 | did not reduce; also recorded: None of the tested molecules significantly reduced PDH activity | detected | strong PDH activity | did not reduce; also recorded: None of the tested molecules significantly reduced PDH activity | did not reduce; also recorded: None of the tested molecules significantly reduced PDH activity | 17000 | 307 ± 56 | 10.1 ± 1.8 | much weaker ADH activity | did not affect; also recorded: no effect | 1059 ± 69 | 1064 ± 52 | 1103 ± 55 | 1065 ± 44 | 1152 ± 101 | not inhibited | kcat ([1]; substrate prephenate (PDH activity), 37° C., 0.5 mM NADP+, mean ± s.e.m., listed as Glyma18g02650): 26 s⁻¹ |
| B2 | – | – | – | – | – | – | – | – | – | – | – | – | – | – | – | – | – | – | – | – | Km [10]: 410 µM |
| B3 | 223 | 655 ± 73 | 21.8 ± 2.4 | 223 ± 20 | did not reduce; also recorded: None of the tested molecules significantly reduced PDH activity | detected | strong PDH activity | did not reduce; also recorded: None of the tested molecules significantly reduced PDH activity | did not reduce; also recorded: None of the tested molecules significantly reduced PDH activity | 42500 ± 21800 | 229 ± 96 | 5.5 ± 3.2 | much weaker ADH activity | did not affect; also recorded: no effect | 579 ± 28 | 604 ± 22 | 610 ± 7 | 641 ± 19 | 652 ± 56 | not inhibited | kcat ([1]; substrate prephenate (PDH activity), 37° C., 0.5 mM NADP+, mean ± s.e.m., listed as Mt3g071980): 22 s⁻¹; Km ([7]; listed as Mt3g071980): 43000 µM |
